Reference: article PMC2241919

Target: T1, SFVmac PR-RT WT (simian foamy virus from macaque (SFVmac), UniProt P23074 1-751)
T1 sequence: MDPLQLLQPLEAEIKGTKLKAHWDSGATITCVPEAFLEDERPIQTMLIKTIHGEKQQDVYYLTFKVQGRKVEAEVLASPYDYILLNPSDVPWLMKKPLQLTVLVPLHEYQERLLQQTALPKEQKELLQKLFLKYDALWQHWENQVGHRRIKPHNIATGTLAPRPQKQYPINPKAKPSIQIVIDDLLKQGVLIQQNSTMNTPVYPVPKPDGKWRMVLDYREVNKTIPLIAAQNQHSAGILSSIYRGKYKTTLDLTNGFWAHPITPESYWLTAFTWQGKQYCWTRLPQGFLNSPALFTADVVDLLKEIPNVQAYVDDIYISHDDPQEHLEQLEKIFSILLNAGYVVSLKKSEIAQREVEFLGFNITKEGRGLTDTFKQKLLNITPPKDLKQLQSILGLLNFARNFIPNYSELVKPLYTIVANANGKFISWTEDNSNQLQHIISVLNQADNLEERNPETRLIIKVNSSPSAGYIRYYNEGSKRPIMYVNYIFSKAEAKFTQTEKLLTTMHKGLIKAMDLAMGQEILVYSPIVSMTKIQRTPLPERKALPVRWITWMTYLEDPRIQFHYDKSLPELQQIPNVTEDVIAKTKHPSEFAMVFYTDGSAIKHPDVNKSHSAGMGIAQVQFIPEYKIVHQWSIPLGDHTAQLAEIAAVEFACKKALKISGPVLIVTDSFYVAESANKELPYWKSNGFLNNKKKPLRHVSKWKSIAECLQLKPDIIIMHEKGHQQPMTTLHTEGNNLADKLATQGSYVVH
Experiment: fluorescence anisotropy

B1: 24/40-mer DNA/DNA P/T (dsDNA)
DNA 1: ATCACCAGGAGAGGGGAAAGCGGA
DNA 2: CTAATTCCGCTTTCCCCTCTCCTGGTGATCCTTTCCATCC
  Kd: 36.4 ± 2.4 nM

B2: 24/40-mer DNA/RNA P/T (DNA:RNA)
DNA: ATCACCAGGAGAGGGGAAAGCGGA
RNA: CUAAUUCCGCUUUCCCCUCUCCUGGUGAUCCUUUCCAUCC
  Kd: 32.4 ± 4.2 nM
